Results: patent US20190023748A1 (NAVIGEN, published 2019)
Bridge positions count the residues as written; N and C are the ends. Square brackets hold non-standard residues; d marks the D form. Primed or numbered codes have the meaning given here. PEG4′ = not defined here

Assays:
Experiment in all cases: cell-based or functional assay
[1] = molecular target: HIV-1 gp41 of isolate KNH1135 (clade A) (HIV-1 isolate KNH1135)
[2] = molecular target: HIV-1 gp41 of isolate KNH1207 (clade A) (HIV-1 isolate KNH1207)
[3] = molecular target: HIV-1 gp41 of isolate CM244 (AE) (HIV-1 isolate CM244)
[4] = molecular target: HIV-1 gp41 of isolate CM240/GS022 (AE) (HIV-1 isolate CM240/GS022)
[5] = molecular target: HIV-1 gp41 of isolate NI1046 (AE) (HIV-1 isolate NI1046)
[6] = molecular target: HIV-1 gp41 of isolate NI1149 (AE) (HIV-1 isolate NI1149)
[7] = molecular target: HIV-1 gp41 of isolate NP1695 (AE) (HIV-1 isolate NP1695)
[8] = molecular target: HIV-1 gp41 of isolate 55815 (AG) (HIV-1 isolate 55815)
[9] = molecular target: HIV-1 gp41 of isolate CAM0002 (AG) (HIV-1 isolate CAM0002)
[10] = molecular target: HIV-1 gp41 of isolate CAM0013 (AG) (HIV-1 isolate CAM0013)
[11] = molecular target: HIV-1 gp41 of isolate CAM0015 (AG) (HIV-1 isolate CAM0015)
[12] = molecular target: HIV-1 gp41 of isolate BK132/GS009 (clade B) (HIV-1 isolate BK132/GS009)
[13] = molecular target: HIV-1 gp41 of isolate BX08 (clade B) (HIV-1 isolate BX08)
[14] = molecular target: HIV-1 gp41 of isolate NP1538 (clade B) (HIV-1 isolate NP1538)
[15] = molecular target: HIV-1 gp41 of isolate 56313 (clade C) (HIV-1 isolate 56313)
[16] = molecular target: HIV-1 gp41 of isolate PBL286 (clade C) (HIV-1 isolate PBL286)
[17] = molecular target: HIV-1 gp41 of isolate PBL288 (clade C) (HIV-1 isolate PBL288)
[18] = molecular target: HIV-1 gp41 of isolate SE364/GS015 (clade C) (HIV-1 isolate SE364/GS015)
[19] = molecular target: HIV-1 gp41 of isolate SM145/GS016 (clade C) (HIV-1 isolate SM145/GS016)
[20] = molecular target: HIV-1 gp41 of isolate TZBD9/11 (clade C) (HIV-1 isolate TZBD9/11)
[21] = molecular target: HIV-1 gp41 of isolate 57128 (clade D) (HIV-1 isolate 57128)
[22] = molecular target: HIV-1 gp41 of isolate 301965 (clade D) (HIV-1 isolate 301965)
[23] = molecular target: HIV-1 gp41 of isolate 93UG065 (clade D) (HIV-1 isolate 93UG065)
[24] = molecular target: HIV-1 gp41 of isolate A03349M1 (clade D) (HIV-1 isolate A03349M1)
[25] = molecular target: HIV-1 gp41 of isolate A07412M1 (clade D) (HIV-1 isolate A07412M1)
[26] = molecular target: HIV-1 gp41 of isolate A08483M1 (clade D) (HIV-1 isolate A08483M1)
[27] = molecular target: HIV-1 gp41 of isolate J32228M4 (clade D) (HIV-1 isolate J32228M4)
[28] = molecular target: HIV-1 gp41 of isolate NKU3006 (clade D) (HIV-1 isolate NKU3006)
[29] = molecular target: HIV-1 gp41 of isolate KER2018 (clade A) (HIV-1 isolate KER2018)

B1: CPT31 (cholesterol-PIE12-2-trimer with PEG32 fourth-arm spacer) (peptide)
peptide: Ac-[dH][dP][dC][dD][dY][dP][dE][dW][dQ][dW][dL][dC][dE][dL]G[PEG4′]K-NH2
modifications: disulfide 3-12 (inferred); not fully specified (some residues); numbers in words are those of the source; also: PIE12-2 trimer on scaffold, fourth arm PEG28 + PEG4 with cholesteryl carbamate
- 1 nM inhibition [1]: 80.6%
- 10 nM inhibition [1]: 83.4%
- 1 nM inhibition [2]: 92.1%
- 10 nM inhibition [2]: 98.2%
- 1 nM inhibition [3]: 95.4%
- 10 nM inhibition [3]: 99.5%
- 1 nM inhibition [4]: 83.8%
- 10 nM inhibition [4]: 95%
- 1 nM inhibition [5]: 99.1%
- 10 nM inhibition [5]: 99.7%
- 1 nM inhibition [6]: 92.9%
- 10 nM inhibition [6]: 97.4%
- 1 nM inhibition [7]: 95.7%
- 10 nM inhibition [7]: 97%
- 1 nM inhibition [8]: 98.8%
- 10 nM inhibition [8]: 99.5%
- 1 nM inhibition [9]: 95.6%
- 10 nM inhibition [9]: 99.7%
- 1 nM inhibition [10]: 98.4%
- 10 nM inhibition [10]: 99.7%
- 1 nM inhibition [11]: 96%
- 10 nM inhibition [11]: 97%
- 1 nM inhibition [12]: 99.7%
- 10 nM inhibition [12]: 99.8%
- 1 nM inhibition [13]: 94.2%
- 10 nM inhibition [13]: 99.5%
- 1 nM inhibition [14]: 95%
- 10 nM inhibition [14]: 99.4%
- 1 nM inhibition [15]: 97.9%
- 10 nM inhibition [15]: 99.3%
- 1 nM inhibition [16]: 95.8%
- 10 nM inhibition [16]: 99%
- 1 nM inhibition [17]: 3%
- 10 nM inhibition [17]: 12%
- 1 nM inhibition [18]: 91.6%
- 10 nM inhibition [18]: 97.7%
- 1 nM inhibition [19]: 30.6%
- 10 nM inhibition [19]: 75.7%
- 1 nM inhibition [20]: 84.7%
- 10 nM inhibition [20]: 85.4%
- 1 nM inhibition [21]: 35.2%
- 10 nM inhibition [21]: 37.3%
- 1 nM inhibition [22]: 96.1%
- 10 nM inhibition [22]: 97.7%
- 1 nM inhibition [23]: 93.7%
- 10 nM inhibition [23]: 94.4%
- 1 nM inhibition [24]: 93.6%
- 10 nM inhibition [24]: 99.5%
- 1 nM inhibition [25]: 92%
- 10 nM inhibition [25]: 96.7%
- 1 nM inhibition [26]: 69.2%
- 10 nM inhibition [26]: 72.3%
- 1 nM inhibition [27]: 96.1%
- 10 nM inhibition [27]: 98%
- 1 nM inhibition [28]: 97.2%
- 10 nM inhibition [28]: 99.8%
- 1 nM inhibition [29]: 94.8%
- 10 nM inhibition [29]: 97.5%
